Columns and labels:
[1] = target: zebrafish Comp, tissue-derived (zebrafish (endogenous in 5 dpf whole zebrafish)); assay: non-reducing agarose/polyacrylamide composite gel electrophoresis; sequential extracts (TBS; 1 M NaCl/EDTA; 8 M urea) of whole 5 dpf zebrafish; 0.5% agarose/3% polyacrylamide composite gel, non-reducing; immunoblot with guinea pig antibodies to zebrafish Comp
[2] = target: recombinant zebrafish Comp (cartilage oligomeric matrix protein) (zebrafish); assay: non-reducing agarose/polyacrylamide composite gel electrophoresis; purified recombinant Comp; 0.5% agarose/3% polyacrylamide composite gel, SDS sample buffer with 2 M urea, non-reducing; immunoblot with guinea pig antibodies to zebrafish Comp; recombinant rat COMP as marker of the pentamer

zebrafish Comp, tissue-derived (natural protein)
stoichiometry N [1]: 5

recombinant zebrafish Comp (cartilage oligomeric matrix protein)
stoichiometry N [2]: 5

From article PMC9702538
